These results are taken from paper PMC9670026.

For assay [1], the target named is Protein A (UniProt P38507). The experiment in a line: LSPR (localized surface plasmon resonance) biosensor; Protein A immobilised by EDC/NHS on the gold-nanostructure sensor chip; IgG 0.45 mg/mL in running buffer, 1 mL injected at 1 mL/min, one injection (n = 1); running buffer PBS pH 7.4; room temperature; Langmuir 1:1 fit; apparent affinity.
Assay [2] has as its target Protein A (UniProt P38507). The experiment in a line: LSPR (localized surface plasmon resonance) biosensor; Protein A immobilised by EDC/NHS on the gold-nanostructure sensor chip; IgG 0.45 mg/mL in running buffer, 1 mL injected at 1 mL/min, one injection (n = 1); running buffer 10 mM citrate, 150 mM NaCl, pH 3.5; room temperature; Langmuir 1:1 fit; apparent affinity.
Assay [3] deals with Protein A (UniProt P38507). The experiment in a line: LSPR (localized surface plasmon resonance) biosensor; Protein A immobilised by EDC/NHS on the gold-nanostructure sensor chip; IgG 0.45 mg/mL in running buffer, 1 mL injected at 1 mL/min, one injection (n = 1); running buffer 10 mM citrate, 150 mM NaCl, pH 3.8; room temperature; Langmuir 1:1 fit; apparent affinity.
For assay [4], the target named is Protein A (UniProt P38507). The assay is described as follows: LSPR (localized surface plasmon resonance) biosensor; Protein A immobilised by EDC/NHS on the gold-nanostructure sensor chip; IgG 0.45 mg/mL in running buffer, 1 mL injected at 1 mL/min, one injection (n = 1); running buffer 10 mM citrate, 150 mM NaCl, pH 4.0; room temperature; Langmuir 1:1 fit; apparent affinity.

Assay [5] deals with Human IgG1, monomer fraction (human). The experiment in a line: SEC-MALS; SEC-MALS-RI-UV on Superdex 200 Increase 10/300 GL, 1 mL/min, 100 uL injected, room temperature; 0.45 mg/mL total IgG; aggregate fraction of the IgG1 batch. Background: SEC sorts molecules by how far they enter the pores of the column.
In assay [6] the target is Human IgG1 monoclonal antibody, monomer fraction (UniProt P01857). The assay is described as follows: LSPR (localized surface plasmon resonance) fiber-optical nanoplasmonic biosensor, ArgusEye AB. As to conditions: room temperature under ambient conditions, pH 7.4: 140 mM sodium chloride, 2.7 mM potassium chloride, 10 mM phosphate, pH 4.0, 3.8 and 3.5: 150 mM NaCl with 10 mM citrate, pH 7.4: PBS (10 mM phosphate), pH 4.0, 3.8 and 3.5: 10 mM citrate (Methods and Results text). The Figure 3 caption state.

In assay [7] the target is Human IgG1 monoclonal antibody, aggregate fraction (mainly dimers) (UniProt P01857). Described as above. The note with it: room temperature under ambient conditions, pH 7.4: 140 mM sodium chloride, 2.7 mM potassium chloride, 10 mM phosphate, pH 4.0, 3.8 and 3.5: 150 mM NaCl with 10 mM citrate, pH 7.4: PBS (10 mM phosphate), pH 4.0, 3.8 and 3.5: 10 mM citrate (Methods and Results text). The Figure 3 caption state.

The koff is a measure of how fast the partners let go of each other. As a reminder, the kon is the second-order rate constant of association. What is called stoichiometry N is a count of units in the complex or per binding partner.

“Human IgG1, aggregate fraction (antibody)”: the Kd with Protein A [1] was determined as 0.0012 µM; with Protein A [2] it was 0.35 µM; in the assay with Protein A [3], 0.065 µM; in the assay with Protein A [4], 0.026 µM. The koff is 2.9e-05 s⁻¹ with Protein A [1], 0.0099 s⁻¹ with Protein A [2], 0.0024 s⁻¹ with Protein A [3] and 0.00092 s⁻¹ with Protein A [4]. The kon with Protein A [1] is 25000 M⁻¹ s⁻¹; in the assay with Protein A [2], 28000 M⁻¹ s⁻¹; with Protein A [3], 36000 M⁻¹ s⁻¹; with Protein A [4] it was 36000 M⁻¹ s⁻¹.

Turning to Human IgG1, monomer fraction (antibody), the stoichiometry N in assay [5] was 2. The Kd in the assay with Protein A [1] came to 0.0013 µM; with Protein A [2], 0.66 µM; in the assay with Protein A [3], 0.33 µM; with Protein A [4] it was 0.13 µM. The koff in the assay with Protein A [1] came to 2.9e-05 s⁻¹; with Protein A [2], 0.011 s⁻¹; with Protein A [3] it was 0.01 s⁻¹; with Protein A [4], 0.004 s⁻¹. The kon with Protein A [1] turned out to be 22000 M⁻¹ s⁻¹; in the assay with Protein A [2] it was 17000 M⁻¹ s⁻¹; in the assay with Protein A [3], 30000 M⁻¹ s⁻¹; with Protein A [4], 31000 M⁻¹ s⁻¹.

As to “Protein A (staphylococcal protein A, SpA)”, the koff is 0.011 s⁻¹ in assay [6] (pH 3.5); 0.01 s⁻¹ in assay [6] (pH 3.8); 0.004 s⁻¹ in assay [6] (pH 4.0); 2.9e-05 s⁻¹ in assay [6] (pH 7.4); 0.0099 s⁻¹ in assay [7] (pH 3.5); 0.0024 s⁻¹ in assay [7] (pH 3.8). Moreover, the koff in assay [7] (pH 4.0) amounted to 0.00092 s⁻¹; in assay [7] (pH 7.4), 2.9e-05 s⁻¹. The association rate constant (kon) in assay [6] (pH 3.5) came out at 17000 M⁻¹ s⁻¹; in assay [6] (pH 3.8), 30000 M⁻¹ s⁻¹; in assay [6] (pH 4.0), 31000 M⁻¹ s⁻¹; in assay [6] (pH 7.4) it was 22000 M⁻¹ s⁻¹; in assay [7] (pH 3.5) it was 28000 M⁻¹ s⁻¹; in assay [7] (pH 3.8), 36000 M⁻¹ s⁻¹. The kon was 36000 M⁻¹ s⁻¹ in assay [7] (pH 4.0) and 25000 M⁻¹ s⁻¹ in assay [7] (pH 7.4).
